According to article doi:10.1101/2024.09.12.612777 (bioRxiv, 2024):

Key:
Assay in all cases: pull-down
[1] = biological target: T1, GATA1 (recombinant, pull-down) (Arabidopsis thaliana, UniProt Q8LAU9 1-274)
T1 sequence (looked up): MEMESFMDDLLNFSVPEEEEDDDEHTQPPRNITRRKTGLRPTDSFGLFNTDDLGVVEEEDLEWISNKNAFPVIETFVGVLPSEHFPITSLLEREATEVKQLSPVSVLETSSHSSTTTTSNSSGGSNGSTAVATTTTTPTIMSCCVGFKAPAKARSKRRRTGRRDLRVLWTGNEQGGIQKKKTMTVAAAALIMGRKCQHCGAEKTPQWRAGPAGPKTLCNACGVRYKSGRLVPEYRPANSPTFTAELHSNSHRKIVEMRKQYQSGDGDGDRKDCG

[2] = biological target: T2, VAL1 (recombinant, pull-down) (Arabidopsis thaliana, UniProt Q8W4L5 1-790)
T2 sequence (looked up): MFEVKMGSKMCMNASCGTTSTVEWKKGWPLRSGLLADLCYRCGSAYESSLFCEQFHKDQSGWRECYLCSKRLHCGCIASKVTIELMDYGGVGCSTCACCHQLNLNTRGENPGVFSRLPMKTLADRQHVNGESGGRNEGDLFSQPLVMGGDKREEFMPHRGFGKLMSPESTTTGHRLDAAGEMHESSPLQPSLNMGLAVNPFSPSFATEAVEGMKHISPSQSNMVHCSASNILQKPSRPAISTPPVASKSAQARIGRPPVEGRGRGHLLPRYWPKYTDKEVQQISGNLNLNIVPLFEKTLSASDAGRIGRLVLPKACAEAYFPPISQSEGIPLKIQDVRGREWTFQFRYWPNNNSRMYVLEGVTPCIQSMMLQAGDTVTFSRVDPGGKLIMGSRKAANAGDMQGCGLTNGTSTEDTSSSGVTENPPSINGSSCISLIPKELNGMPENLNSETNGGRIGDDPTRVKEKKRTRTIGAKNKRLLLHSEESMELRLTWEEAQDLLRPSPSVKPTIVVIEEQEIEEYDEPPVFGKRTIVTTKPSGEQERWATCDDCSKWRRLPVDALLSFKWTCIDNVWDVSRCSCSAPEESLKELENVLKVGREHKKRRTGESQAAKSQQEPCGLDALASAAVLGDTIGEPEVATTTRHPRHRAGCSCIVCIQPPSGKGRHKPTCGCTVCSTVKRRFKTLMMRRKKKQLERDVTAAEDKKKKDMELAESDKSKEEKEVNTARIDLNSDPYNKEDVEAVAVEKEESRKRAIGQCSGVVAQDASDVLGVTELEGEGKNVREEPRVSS

[3] = biological target: T3, UBP5 (H2A deubiquitinase, subunit of the PEAT complex) (Arabidopsis thaliana, UniProt O22207 1-924)
T3 sequence (looked up): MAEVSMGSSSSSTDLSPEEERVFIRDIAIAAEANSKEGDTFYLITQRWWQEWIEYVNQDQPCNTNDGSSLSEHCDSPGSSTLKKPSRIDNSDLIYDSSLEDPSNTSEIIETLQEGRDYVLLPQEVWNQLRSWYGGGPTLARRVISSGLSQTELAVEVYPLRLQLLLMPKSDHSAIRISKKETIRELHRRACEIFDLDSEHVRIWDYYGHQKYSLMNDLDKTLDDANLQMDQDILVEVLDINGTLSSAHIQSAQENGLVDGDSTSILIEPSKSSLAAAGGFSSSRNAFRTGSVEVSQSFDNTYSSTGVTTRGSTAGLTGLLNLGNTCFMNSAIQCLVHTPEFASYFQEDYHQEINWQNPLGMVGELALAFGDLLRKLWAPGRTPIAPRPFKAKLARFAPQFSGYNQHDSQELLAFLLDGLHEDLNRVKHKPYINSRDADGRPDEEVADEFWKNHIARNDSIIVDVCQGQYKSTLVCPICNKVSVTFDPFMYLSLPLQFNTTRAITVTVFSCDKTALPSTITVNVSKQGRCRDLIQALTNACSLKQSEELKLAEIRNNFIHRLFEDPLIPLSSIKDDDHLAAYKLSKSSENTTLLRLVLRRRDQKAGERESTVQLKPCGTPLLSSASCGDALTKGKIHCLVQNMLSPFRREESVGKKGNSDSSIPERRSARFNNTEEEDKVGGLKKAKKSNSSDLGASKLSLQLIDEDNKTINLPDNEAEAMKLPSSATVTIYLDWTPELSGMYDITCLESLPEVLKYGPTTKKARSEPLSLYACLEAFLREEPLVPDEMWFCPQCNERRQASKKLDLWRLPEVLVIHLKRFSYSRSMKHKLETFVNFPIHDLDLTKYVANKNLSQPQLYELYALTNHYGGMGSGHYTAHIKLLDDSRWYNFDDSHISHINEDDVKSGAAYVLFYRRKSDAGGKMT

[4] = biological target: T4, MINU2-3 (C-terminal domain of the MAS catalytic enzyme MINU2, 677-1,064 aa) (Arabidopsis thaliana, UniProt F4K128 677-1064)
T4 sequence (looked up): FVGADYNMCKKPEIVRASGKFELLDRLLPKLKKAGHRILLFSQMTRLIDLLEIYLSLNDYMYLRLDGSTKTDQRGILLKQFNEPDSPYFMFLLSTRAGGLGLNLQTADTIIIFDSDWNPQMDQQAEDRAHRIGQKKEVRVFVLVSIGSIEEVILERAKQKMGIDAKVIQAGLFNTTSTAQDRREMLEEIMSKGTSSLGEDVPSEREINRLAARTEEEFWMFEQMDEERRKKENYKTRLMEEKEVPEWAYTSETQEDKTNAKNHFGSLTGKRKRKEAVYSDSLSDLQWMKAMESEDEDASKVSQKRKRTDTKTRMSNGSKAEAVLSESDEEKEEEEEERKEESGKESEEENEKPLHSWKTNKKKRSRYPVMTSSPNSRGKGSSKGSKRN

[5] = biological target: T5, HDA19 (HDAC catalytic subunit) (Arabidopsis thaliana, UniProt O22446 1-501)
T5 sequence (looked up): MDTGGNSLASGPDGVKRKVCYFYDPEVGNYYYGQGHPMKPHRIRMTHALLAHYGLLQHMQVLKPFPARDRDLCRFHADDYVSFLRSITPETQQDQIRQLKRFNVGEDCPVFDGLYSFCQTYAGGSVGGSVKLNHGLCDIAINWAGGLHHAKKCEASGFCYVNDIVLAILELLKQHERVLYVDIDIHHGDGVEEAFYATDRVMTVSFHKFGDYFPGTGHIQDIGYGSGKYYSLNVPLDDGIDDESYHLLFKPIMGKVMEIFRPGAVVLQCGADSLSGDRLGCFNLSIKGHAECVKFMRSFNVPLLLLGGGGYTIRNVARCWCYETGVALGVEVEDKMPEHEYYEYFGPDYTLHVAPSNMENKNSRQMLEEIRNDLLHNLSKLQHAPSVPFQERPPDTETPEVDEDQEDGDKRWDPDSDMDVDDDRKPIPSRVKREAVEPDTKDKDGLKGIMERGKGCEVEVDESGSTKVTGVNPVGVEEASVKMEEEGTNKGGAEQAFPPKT

[6] = biological target: T6, RING1A (recombinant, pull-down) (Arabidopsis thaliana, UniProt Q9FKW0 1-522)
T6 sequence (looked up): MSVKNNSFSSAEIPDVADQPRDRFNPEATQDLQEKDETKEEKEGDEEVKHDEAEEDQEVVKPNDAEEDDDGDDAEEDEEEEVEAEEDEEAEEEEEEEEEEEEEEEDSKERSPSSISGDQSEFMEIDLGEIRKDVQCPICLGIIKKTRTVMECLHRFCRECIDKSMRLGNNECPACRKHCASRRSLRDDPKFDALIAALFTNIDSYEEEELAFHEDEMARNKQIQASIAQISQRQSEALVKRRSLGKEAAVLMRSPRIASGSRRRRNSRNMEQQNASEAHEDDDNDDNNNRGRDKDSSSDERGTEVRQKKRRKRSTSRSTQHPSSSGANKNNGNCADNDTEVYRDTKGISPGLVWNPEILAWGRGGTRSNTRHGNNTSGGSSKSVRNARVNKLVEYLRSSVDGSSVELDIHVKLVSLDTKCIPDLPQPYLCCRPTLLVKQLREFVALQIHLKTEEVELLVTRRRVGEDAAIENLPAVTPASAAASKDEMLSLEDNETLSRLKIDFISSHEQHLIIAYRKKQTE

[7] = biological target: T7, BRM-3 (C-terminal domain of the BAS-type SWI/SNF chromatin remodeler BRM, 1,596-2,193 aa) (Arabidopsis thaliana, UniProt Q6EVK6 1596-2193)
T7 sequence (looked up): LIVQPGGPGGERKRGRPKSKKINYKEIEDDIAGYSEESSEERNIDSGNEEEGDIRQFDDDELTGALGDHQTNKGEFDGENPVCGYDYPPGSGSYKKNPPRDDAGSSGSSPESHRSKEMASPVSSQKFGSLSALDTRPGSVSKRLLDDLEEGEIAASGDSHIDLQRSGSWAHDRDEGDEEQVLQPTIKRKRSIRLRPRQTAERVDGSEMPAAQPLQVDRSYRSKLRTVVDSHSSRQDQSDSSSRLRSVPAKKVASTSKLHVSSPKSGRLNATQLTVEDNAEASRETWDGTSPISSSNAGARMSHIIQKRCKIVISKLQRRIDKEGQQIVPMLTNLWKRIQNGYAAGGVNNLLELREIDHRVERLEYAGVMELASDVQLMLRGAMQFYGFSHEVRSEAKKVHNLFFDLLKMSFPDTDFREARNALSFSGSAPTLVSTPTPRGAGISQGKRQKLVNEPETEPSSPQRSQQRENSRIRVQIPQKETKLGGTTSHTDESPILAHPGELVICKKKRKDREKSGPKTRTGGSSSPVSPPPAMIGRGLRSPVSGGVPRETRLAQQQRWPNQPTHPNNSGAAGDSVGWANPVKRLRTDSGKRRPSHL

[8] = biological target: ZF2 (recombinant, pull-down) (Arabidopsis thaliana, UniProt Q9SSW2 1-273)
Sequence of ZF2 (recombinant, pull-down) (Q9SSW2 whole entry): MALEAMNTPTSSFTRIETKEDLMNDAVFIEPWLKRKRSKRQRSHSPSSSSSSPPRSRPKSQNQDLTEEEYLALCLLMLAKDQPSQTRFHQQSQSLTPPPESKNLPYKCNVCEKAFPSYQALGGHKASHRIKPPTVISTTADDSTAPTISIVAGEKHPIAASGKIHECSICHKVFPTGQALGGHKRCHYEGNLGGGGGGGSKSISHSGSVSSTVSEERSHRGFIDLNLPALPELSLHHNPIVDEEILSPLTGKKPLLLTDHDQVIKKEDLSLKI

[9] = biological target: T8, AL4 (recombinant, pull-down) (Arabidopsis thaliana, UniProt O81488 1-255)
T8 sequence (looked up): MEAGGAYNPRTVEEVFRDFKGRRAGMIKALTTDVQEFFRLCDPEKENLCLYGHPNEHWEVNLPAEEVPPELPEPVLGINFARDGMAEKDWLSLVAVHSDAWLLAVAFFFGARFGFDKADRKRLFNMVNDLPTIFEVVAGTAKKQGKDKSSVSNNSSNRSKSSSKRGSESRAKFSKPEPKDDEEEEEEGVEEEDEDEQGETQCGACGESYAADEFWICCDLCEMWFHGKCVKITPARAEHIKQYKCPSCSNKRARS

binding result [1]: binds
binding result [2]: binds
binding result [3]: binds
binding result [4]: binds
binding result [5]: binds
binding result [6]: binds
binding result [7]: binds
binding result [8]: binds
binding result [9]: binds
B1: AL2 (recombinant, pull-down) (natural protein, Arabidopsis thaliana, UniProt Q9SRM4 1-246, looked up)
chain: MAAAAVSSNPRTVEEIFKDYSARRAALLRALTKDVDDFYSQCDPEKENLCLYGHPNESWEVNLPAEEVPPELPEPALGINFARDGMQRKDWLSLVAVHSDCWLLSVSFYFGARLNRNERKRLFSLINDLPTLFDVVTGRKAMKDNKPSSDSGSKSRNGTKRSIDGQTKSSTPKLMEESYEEEEEEDEHGDTLCGSCGGHYTNEEFWICCDVCERWYHGKCVKITPAKAESIKQYKCPPCCAKKGRQ
